This is an account of results in patent US8759300.

As a reminder, the Kd is the concentration at which binding is half-saturated. Higher therefore signals weaker binding.

In experiment [1] the target is platelet-derived growth factor-BB (PDGF-BB) (human) (UniProt P01127). The experiment is described as follows: surface plasmon resonance. (In SPR one partner is held on a chip, and binding of the other changes the refractive index at the surface.)
Experiment [2] deals with transforming growth factor-β1 (TGF-β1) (human) (UniProt P01137). The experiment is described as follows: equilibrium or kinetic binding, not said which.
The target in experiment [3] is platelet-derived growth factor-BB (PDGF-BB) (human) (UniProt P01127). The experiment is described as follows: equilibrium binding.
Experiment [4] addresses transforming growth factor-β1 (TGF-β1) (human) (UniProt P01137). The experiment is described as follows: equilibrium binding; equilibrium binding.
Target sequence in this assay (P01137 279-390 limits assumed): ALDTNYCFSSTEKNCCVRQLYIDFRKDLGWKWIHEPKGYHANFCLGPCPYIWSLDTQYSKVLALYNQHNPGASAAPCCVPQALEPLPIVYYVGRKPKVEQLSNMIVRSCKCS
The target is the same in experiment [5]. The experiment is described as follows: surface plasmon resonance, kinetic; kinetic, plasmon surface resonance.
Target sequence in this assay (P01137 279-390 limits assumed): as above
Experiment [6] has as its target platelet-derived growth factor-BB (PDGF-BB) (human) (UniProt P01127). The experiment is described as follows: surface plasmon resonance, kinetic.
Target sequence in this assay (P01127 82-190 limits assumed): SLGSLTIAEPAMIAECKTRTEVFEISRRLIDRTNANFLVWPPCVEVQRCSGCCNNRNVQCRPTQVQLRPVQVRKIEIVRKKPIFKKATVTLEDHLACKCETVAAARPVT
The target of experiment [7] is transforming growth factor-β1 (TGF-β1) (human) (UniProt P01137). The experiment is described as follows: method not restated in the sentence (paragraph: plasmon resonance modulation).
Target sequence in this assay (P01137 279-390 limits assumed): as the sequence (P01137 279-390 limits assumed) above
For experiment [8], the target named is platelet-derived growth factor-BB (PDGF-BB) (human) (UniProt P01127). The description is as above.
Target sequence in this assay (P01127 82-190 limits assumed): as the sequence (P01127 82-190 limits assumed) above
Experiment [9] has as its target vascular endothelial growth factor A (VEGF-A) (human) (UniProt P15692). The experiment is described as follows: plasmon resonance modulation; plasmon resonance.
Experiment [10] addresses transforming growth factor-β1 (TGF-β1) (human) (UniProt P01137). The experiment is described as follows: plasmon resonance modulation; plasmon resonance.
Target sequence in this assay (P01137 279-390 limits assumed): as the sequence (P01137 279-390 limits assumed) above
Experiment [11] addresses platelet-derived growth factor-BB (PDGF-BB) (human) (UniProt P01127). The experiment is described as follows: plasmon resonance modulation; plasmon resonance.
Target sequence in this assay (P01127 82-190 limits assumed): as the sequence (P01127 82-190 limits assumed) above
Experiment [12] deals with vascular endothelial growth factor A (VEGF-A) (human) (UniProt P15692). The experiment is described as follows: method not restated in the sentence.
Experiment [13] has as its target transforming growth factor-β1 (TGF-β1) (human) (UniProt P01137). The experiment is described as follows: method not restated in the sentence.
Target sequence in this assay (P01137 279-390 limits assumed): as the sequence (P01137 279-390 limits assumed) above
Experiment [14] addresses platelet-derived growth factor-BB (PDGF-BB) (human) (UniProt P01127). The experiment is described as follows: method not restated in the sentence.
Target sequence in this assay (P01127 82-190 limits assumed): as the sequence (P01127 82-190 limits assumed) above
Experiment [15] concerns the target transforming growth factor-β1 (TGF-β1) (human) (UniProt P01137). The experiment is described as follows: radiolabeled GF binding to intact FN, non linear regression; radiolabeled GF, intact FN.
Experiment [16] concerns the target platelet-derived growth factor-BB (PDGF-BB) (human) (UniProt P01127). Described as above.
Experiment [17] has as its target transforming growth factor-β1 (TGF-β1) (human) (UniProt P01137). The experiment is described as follows: equilibrium binding to FN adsorbed to a surface or coupled to agarose beads.
Experiment [18] has as its target platelet-derived growth factor-BB (PDGF-BB) (human) (UniProt P01127). The experiment is described as above.

FNIII12-14, sequence (P02751 other isoform, or with tags, fused parts or gaps limits assumed): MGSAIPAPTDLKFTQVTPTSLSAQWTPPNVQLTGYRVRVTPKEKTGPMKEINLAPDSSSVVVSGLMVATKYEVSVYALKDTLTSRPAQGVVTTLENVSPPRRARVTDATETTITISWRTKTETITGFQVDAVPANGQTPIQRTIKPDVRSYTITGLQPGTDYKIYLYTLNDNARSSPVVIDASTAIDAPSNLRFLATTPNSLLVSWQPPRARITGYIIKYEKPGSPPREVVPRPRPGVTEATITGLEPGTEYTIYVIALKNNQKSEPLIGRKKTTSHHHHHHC
FNIII12-15 (H), heparinII-binding domain of fibronectin, sequence (P02751 other isoform, or with tags, fused parts or gaps limits assumed): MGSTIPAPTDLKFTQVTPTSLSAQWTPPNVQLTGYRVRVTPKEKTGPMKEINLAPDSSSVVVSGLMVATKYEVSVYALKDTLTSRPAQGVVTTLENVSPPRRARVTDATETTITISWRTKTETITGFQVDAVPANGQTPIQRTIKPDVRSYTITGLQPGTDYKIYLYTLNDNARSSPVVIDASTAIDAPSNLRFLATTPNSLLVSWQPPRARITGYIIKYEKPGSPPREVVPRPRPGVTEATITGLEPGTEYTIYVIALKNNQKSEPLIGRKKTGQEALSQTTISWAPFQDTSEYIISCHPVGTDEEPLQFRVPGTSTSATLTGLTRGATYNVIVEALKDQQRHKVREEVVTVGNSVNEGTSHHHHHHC
IIICS, variably-spliced domain of fibronectin, sequence (P02751 other isoform, or with tags, fused parts or gaps limits assumed): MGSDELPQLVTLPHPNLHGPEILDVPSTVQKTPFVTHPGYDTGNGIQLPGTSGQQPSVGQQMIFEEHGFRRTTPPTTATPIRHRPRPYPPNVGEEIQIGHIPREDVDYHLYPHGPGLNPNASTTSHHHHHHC
FNIII12-V15 (HV), composite heparinII-binding and variably-spliced IIICS domains of fibronectin, sequence (P02751 other isoform, or with tags, fused parts or gaps limits assumed): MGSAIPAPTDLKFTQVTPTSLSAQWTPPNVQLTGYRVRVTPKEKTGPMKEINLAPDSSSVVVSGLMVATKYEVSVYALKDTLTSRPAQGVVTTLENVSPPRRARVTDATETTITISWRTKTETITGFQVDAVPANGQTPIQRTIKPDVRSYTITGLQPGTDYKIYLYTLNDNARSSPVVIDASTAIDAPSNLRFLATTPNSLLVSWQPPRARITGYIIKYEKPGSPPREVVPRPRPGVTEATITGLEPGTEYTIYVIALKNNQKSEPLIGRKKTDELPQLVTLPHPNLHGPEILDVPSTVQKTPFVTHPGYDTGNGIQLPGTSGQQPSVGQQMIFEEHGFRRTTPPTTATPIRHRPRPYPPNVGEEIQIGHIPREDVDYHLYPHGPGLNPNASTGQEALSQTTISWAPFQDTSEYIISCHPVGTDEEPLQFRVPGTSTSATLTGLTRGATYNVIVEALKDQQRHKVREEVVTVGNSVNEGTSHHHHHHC
FNIII1-7, sequence (P02751 other isoform, or with tags, fused parts or gaps limits assumed): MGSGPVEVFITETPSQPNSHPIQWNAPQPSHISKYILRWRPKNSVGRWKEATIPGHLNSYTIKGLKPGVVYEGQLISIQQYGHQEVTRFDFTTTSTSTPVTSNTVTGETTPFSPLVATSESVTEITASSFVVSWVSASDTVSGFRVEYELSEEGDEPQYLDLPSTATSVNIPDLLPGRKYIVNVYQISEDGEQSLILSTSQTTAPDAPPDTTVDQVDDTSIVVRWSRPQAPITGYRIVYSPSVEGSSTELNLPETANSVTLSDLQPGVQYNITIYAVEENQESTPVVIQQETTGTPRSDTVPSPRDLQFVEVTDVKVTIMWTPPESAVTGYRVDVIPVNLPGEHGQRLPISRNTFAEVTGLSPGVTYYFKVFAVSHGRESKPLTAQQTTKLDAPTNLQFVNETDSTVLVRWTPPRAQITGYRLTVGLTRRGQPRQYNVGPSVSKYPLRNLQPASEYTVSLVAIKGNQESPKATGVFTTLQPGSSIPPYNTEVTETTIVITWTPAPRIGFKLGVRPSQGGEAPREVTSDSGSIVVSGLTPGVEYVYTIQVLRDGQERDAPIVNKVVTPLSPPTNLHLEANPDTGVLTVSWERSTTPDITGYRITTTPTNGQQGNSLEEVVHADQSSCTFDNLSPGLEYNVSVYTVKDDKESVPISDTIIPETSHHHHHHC
vascular endothelial growth factor A (VEGF-A) (human), sequence (P15692 other isoform, or with tags, fused parts or gaps limits assumed): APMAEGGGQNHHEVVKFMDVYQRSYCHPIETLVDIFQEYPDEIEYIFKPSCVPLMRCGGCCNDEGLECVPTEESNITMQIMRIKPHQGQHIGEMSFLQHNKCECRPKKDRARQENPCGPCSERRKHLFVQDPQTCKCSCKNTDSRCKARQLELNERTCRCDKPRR
FNIII12-13, sequence (P02751 other isoform, or with tags, fused parts or gaps limits assumed): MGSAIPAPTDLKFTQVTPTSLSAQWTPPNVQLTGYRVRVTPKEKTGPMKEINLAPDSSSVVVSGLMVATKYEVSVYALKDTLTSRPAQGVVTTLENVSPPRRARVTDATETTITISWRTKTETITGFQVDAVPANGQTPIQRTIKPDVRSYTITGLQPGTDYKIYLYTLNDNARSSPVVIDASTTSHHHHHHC

FNIII1 (from UniProt P02751 610-702): the figures for the dissociation constant Kd in experiment [1], in [2] and in [3] were 370 nM, 6.2 nM and 32 nM, respectively.

Regarding FNIII1-2 (from UniProt P02751 610-812), the Kd in experiment [1] is 9.1 nM; in experiment [3], 37 nM.

Take FNIII1-7 (from UniProt P02751 610-1266): the dissociation constant Kd turned out to be 17 nM in experiment [4], 18 nM in experiment [5], 100 nM in [6] and 75 nM in experiment [3].

As to “FNIII12-13 (from UniProt P02751 1812-1992)”, the dissociation constant (Kd) in experiment [3] turned out to be 75 nM.

“FNIII12-14 (from UniProt P02751 1812-2082)”: the dissociation constant Kd turned out to be 7.6 nM in experiment [7], 55 nM in experiment [8], 7.6 nM in experiment [2] and 35 nM in [3].

With “FNIII12-15 (H), heparinII-binding domain of fibronectin (from UniProt P02751 1631-1987)”, the Kd was 16 nM in experiment [7], 6.8 nM in [8], 16 nM in experiment [2] and 6.8 nM in [3].

With “FNIII12-V15 (HV), composite heparinII-binding and variably-spliced IIICS domains of fibronectin (from UniProt P02751 1812-2288)”, the Kd in [4] worked out at 97 nM; in [9] it was 0.6 nM; in experiment [10] it was 2.5 nM; in experiment [11], 17 nM; in experiment [5], 25 nM; in experiment [6], 17 nM. The substance further showed a dissociation constant (Kd) in experiment [3] of 21 nM.

“IIICS, variably-spliced domain of fibronectin (from UniProt P02751 2083-2202)”: the Kd amounted to 100 nM in [12]; 100 nM in [13]; 100 nM in experiment [14]; 74 nM in [2]; 350 nM in experiment [3].

In the case of “intact human plasma fibronectin (FN) (from UniProt P02751 32-2477)”, the Kd was 53 nM in [15], 49 nM in [16], 53 nM in experiment [17] and 49 nM in experiment [18].
